This note sets out measurements from patent publication US7063950.

This experiment has as its target human neuronal calcium channel α1B-1α2bβ1-2 (human). Briefly: ω-CgTx binding to transiently transfected HEK293 cells (plasmid ratio 2:1.8:1).

Turning to “ω-CgTx GVIA (from UniProt P01522 46-72) (peptide)”, the Kd worked out at 0.0546 nM and the binding capacity (Bmax) (sites per cell) came to 28700.
